Source: paper doi:10.1101/2021.10.11.463969

Biological target: Measles virus matrix protein (MeV-M) fused to a twin StrepII tag (Measles virus) (UniProt Q9W850)
Assay: SEC-MALS

With “Measles virus matrix protein (MeV-M) fused to a twin StrepII tag (from UniProt Q9W850 1-335) (natural protein)” the stoichiometry N was 2.
